“Also recorded” adds a separate entry of the source. Where a name gives a salt, the structure may show the parent alone. Read-outs that look alike come from different tables or passages of the source. Square brackets hold non-standard residues; d marks the D form. Ends that are not written are not given here. Met(O) = CS(=O)CC[C@H](N)C(=O)O

For series [1], the system named is OS membrane protein pellet. Briefly: Protein solubilization efficiencies of solubilizing agents (DC protein assay of supernatant). The procedure: Bovine retinas obtained from WL Lawson Company (Omaha, Nebr.) were used to prepare the photoreceptor outer segment (OS) by sucrose density ultracentrifugation. All solvents used for bovine OS preparations contained protease inhibitors (1 mM EDTA, 0.2 mM PMSF, 0.7 μg/μL leupeptin, and 0.5 μg/μL pepstatin A) to inhibit protein degradation and 100 μM diethylenetriamine pentaacetic acid (DTPA) to inhibit oxidation.
The solubilized pellet solution was sonicated with a VirSonic 100 ultrasonic cell disrupter (SP Scientific, Gardiner, N.Y.) three times at 4.5 kHz of ultrasonic frequency for 9 seconds with 3-minute intervals between the sonications. The resulting protein extract was centrifuged at 15,000 g for 10 minutes, and the solubilized proteins in the supernatant were quantified using a DC protein assay kit (Bio-Rad, Hercules, Calif.).

For series [2], the target named is T1, porcine trypsin (Sus scrofa, UniProt P00761).
T1 construct: purchased Promega
T1 sequence (P00761 9-231): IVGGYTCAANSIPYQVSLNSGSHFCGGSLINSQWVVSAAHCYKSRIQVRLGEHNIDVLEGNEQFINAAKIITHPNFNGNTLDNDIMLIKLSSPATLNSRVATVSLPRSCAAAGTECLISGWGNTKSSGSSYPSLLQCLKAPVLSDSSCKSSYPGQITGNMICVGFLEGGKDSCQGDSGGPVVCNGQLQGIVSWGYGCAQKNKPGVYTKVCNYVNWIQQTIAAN
Briefly: Effect of solubilizing agents on trypsin amidase activity (Ac-Lys-p-nitroaniline hydrolysis, 405 nm). The format is biochemical.
Experimental: To measure the amidase activity of 100 nM trypsin, we tracked the hydrolysis of 2 mM Ac-Lys-p-nitro aniline hydrochloride through absorbance increase at 405 nm over 3 min in 100 mM ABC using an ELISA plate reader (Thermo-Fisher Scientific, Waltham, Mass.).

For series [3] the following is noted: cited from earlier work.
Series [4] is described as follows: pI values of BSA tryptic peptides. The format is physicochemical.

In the case of `N=C(N)N` [Gdn-HCl, guanidine hydrochloride], in series [1], the Protein amount solubilized is reported as 7.3 ± 4.1 μg/10μ OS membrane preparation and the “protein solubilized from OS membrane protein pellet” value (“protein solubilized” for short) turned out to be 7.3 µg. This compound also registered a trypsin activity retained in series [2] (0.1 M agent) of 40%. Further, the trypsin activity retained in series [2] (0.25 M agent) is 20%.
Broadly, the pKa is the negative logarithm of the acid dissociation constant. For the compound `O=C(O)C(F)(F)C(F)(F)C(F)(F)C(F)(F)C(F)(F)C(F)(F)C(F)(F)F` [PFOA, perfluorooctanoic acid], the pKa is given as 3.8 in series [3] (carboxyl group, at infinite dilution / diluted solution, determined experimentally) and “lower than 1” in series [3] (other reports). Further, the Protein amount solubilized in series [1] (OS membrane pellet in 100 mM ABC with agent at the concentration printed in the row (25 mM SDS 0.8% w/v, 25 mM PFOA 1% w/v, 4M urea, 4M Gdn-HCl), mean ± SD, triplicate) is listed as 47.4 ± 4.4 μg/10μ OS membrane preparation. The “protein solubilized” value in series [1] (text: 100 mM ABC, 1% PFOA, 1% SDS, urea, Gdn-HCl) amounted to 47.4 µg. The trypsin activity retained entry in series [2] (0.5% surfactant, control without agent = 100%) was “more than 80%”; in series [2] (PFOA concentrations up to 0.25%, control without agent = 100%) it was “fully enzymatically activity; also recorded: full activity”.
Regarding `NC(N)=O` [Urea, urea], in series [1], the Protein amount solubilized is given as 8.1 ± 3.4 μg/10μ OS membrane preparation and the “protein solubilized” value turned out to be 8.1 µg. In series [2] (2 M agent), the trypsin activity retained result is reported as “approximately 50%”. In series [2] (4 M agent), this compound showed a trypsin activity retained of about 20%.
In turn, “AEFVEVTK (listed as Homo sapiens) [SEQ ID No: 7, tryptic peptide of BSA]” returned a pI in series [4] of 4.5.
In the case of “DAFLGSFLYEYSR (listed as Homo sapiens) [SEQ ID No: 13, tryptic peptide of BSA]”, in series [4], the pI is listed as 4.4.
Same read-out and setting: with “ECCHGDLLECADDR (listed as Homo sapiens) [SEQ ID No: 17, tryptic peptide of BSA]” the figure was 4.1; with “ETYGDM(o)ADCCEK (ETYGD[Met(O)]ADCCEK; cysteine pairing not given here; listed as Homo sapiens) [SEQ ID No: 20, tryptic peptide of BSA]”, 3.9; with “ETYGDMADCCEK (listed as Homo sapiens) [SEQ ID No: 21, tryptic peptide of BSA]”, 3.9.
Same read-out and setting: the same measure for “EYEATLEECCAK (listed as Homo sapiens) [SEQ ID No: 18, tryptic peptide of BSA]”: 4.1; for “KQTALVELLK (listed as Homo sapiens) [SEQ ID No: 6, tryptic peptide of BSA]”: 8.6; for “KVPQVSTPTLVEVSR (listed as Homo sapiens) [SEQ ID No:5, tryptic peptide of BSA]”: 8.8.
The same measure, in the same setting: the same measure for “LGEYGFQNALIVR (listed as Homo sapiens) [SEQ ID No: 10, tryptic peptide of BSA]”: 6.0.
For “LKPDPNTLCDEFK (listed as Homo sapiens) [SEQ ID No: 12, tryptic peptide of BSA]”, the pI in series [4] is reported as 4.6.
“LVNELTEFAK (listed as Homo sapiens) [SEQ ID No: 4, tryptic peptide of BSA]” displayed a pI in series [4] of 4.5.
On the same count and under the same terms, with “LVTDLTK (listed as Homo sapiens) [SEQ ID No: 1, tryptic peptide of BSA]” the figure was 5.8; with “M(o)PCTEDYLSLILNR ([Met(O)]PCTEDYLSLILNR; listed as Homo sapiens) [SEQ ID No: 14, tryptic peptide of BSA]”, 4.4; with “RHPEYAVSVLLR (listed as Homo sapiens) [SEQ ID No: 9, tryptic peptide of BSA]”, 8.8.
Still for that read-out and setting: with “RHPYFYAPELLYYANK (listed as Homo sapiens) [SEQ ID No: 8, tryptic peptide of BSA]” the figure was 8.4.
The same measure, in the same setting: the same measure for “SLHTLFGDELCK (listed as Homo sapiens) [SEQ ID No: 11, tryptic peptide of BSA]”: 5.3.
“TCVADESHAGCEK (listed as Homo sapiens) [SEQ ID No: 19, tryptic peptide of BSA]” had a pI in series [4] of 4.7.
In series [4], “TVMENFVAFVDK (listed as Homo sapiens) [SEQ ID No: 16, tryptic peptide of BSA]” showed a pI of 4.4.
Turning to “VPQVSTPTLVEVSR (listed as Homo sapiens) [SEQ ID No: 3, tryptic peptide of BSA]”, the pI in series [4] stood at 6.0.
On the same count and under the same terms, with “YIYEIAR (listed as Homo sapiens) [SEQ ID No: 2, tryptic peptide of BSA]” the figure was 6.0; with “YNGVFQECCQAEDK (listed as Homo sapiens) [SEQ ID No: 15, tryptic peptide of BSA]”, 4.1.

Source of the values: patent publication US8921515B2, “Methods and compositions of preparation for proteome analysis” (Case Western Reserve University, priority 2011, dated 2014).
